From patent US20080261267A1, “Cellulases from Rumen” (priority 2004, published 2008)

Test: Cation dependence
Assay type: biochemical
Details: 10 to 100 mM
Method: FIG. 3 represents Table 3 giving an overview over the biochemical properties of the cellulases according to the invention. Reaction was performed at the optimum pH and temperature for each done using CMC as substrate. […] The values for clones pBKRR.1, 9, 11, 13, 14, 16 and 22 are depicted. For each clone the following data are given: • maximum pH at which the remaining activity after 24 h incubation at the indicate pH is >90% (column “Stable at pH”). […] Activity was measured after 2 h incubation and compared with a control reaction in buffer lacking dimethylsulfoxide, • detergent resistance given by the remaining activity in the corresponding buffer (optimum pH) containing the indicate detergent at a concentration for 0 to 3%. […] The effect of mono- (Na^+, K^+, NH4^+, and divalent cations (Ca^2+, Mn^2+, Mg^2+, Sr^2+, Fe^2+, Cu^2+, Ni^2+, Co^2+, Zn^2+) was first examined by treating the enzyme with chelating agents (EDTA and EGTA) to remove any endogenous divalent cations, followed by adding cations to the reaction mixture.
[…] Inhibitors such as N-ethylmalemide, iodoacetate and p-chloromercuribenzoate at concentration from 1-5 mM were incubated in the presence of the enzyme for 30 min (30° C.) prior to the addition of the substrate (CMC). The effects of detergents on the endoglucanase activity was analysed by adding of 1-3% (wt/vol) detergent to the enzyme solution. In all cases, the enzyme activity was assayed in triplicate using the standard cellulose assay described above and the residual activity was expressed as percent of the control value (without addition of chemicals).

B1: pBKRR.14: rumen endoglucanase, sequences FIG. 16/24; also capable of hydrolyzing xylan (protein)
chain: MINVLQHHPEVELSVDKTSVSFNRSGGEETFTVTSSTQPHVSADVSWVVVETGKIDKDHHTEVRVLAGANRKEASAGTLTVSCSDKKVSVSVKQEAFVAPSVASTTAVTPQMVFDAMGPGWNMGNHMDAISNGVSGETVWGNPKCTQATMDGVKAAGYKAVRICTTWEGHIGAAPAYALEQKWLDRVAEIVGYAEKAGLVAIVNTHHDESYWQDISKCYNNAANHEKVKDEVFSVWTQIAEKFKDKGEWLVFESFNEIQDGGWGWSDAFRKNPDAQYKVLNEWNQTFVDAVRSTGGQNATRWLGIPGYACNPGFTIAGLVLPKDYTTANRLMVAVHDYDPYDYTLKDPLIRQWGHTADADKRPSGDNEKAVVDVFNNLKAAYLDKGIPVYLGEMGCSRHTAADFPYQKYYMEYFCKAAADRLLPMYLWDNGAKGVGSERHAYIDHGTGQFVDEDARTLVGLMVKAVTTKDASYTLESVYNSAP
modifications: Description of sequence sequence derived from genomic DNA library from rumen ecosystem, particularly amino acid sequence of clones pBKRR 14 and 20-1; RR14=RR20-1;(see Figure 24)
notes: also capable of hydrolyzing xylan
stimulatory effect of Mg^2+ (chloride salt): 127%
influence of mono- and divalent cations on activity (chloride salts, after EDTA and EGTA treatment): not influenced
